# Source: IntAct's records for PubMed 29892012
# B1: Abl interactor 2 (Homo sapiens), Q9NYB9 (parent)
# chain: MAELQMLLEEEIPGGRRALFDSYTNLERVADYCENNYIQSADKQRALEETKAYTTQSLASVAYLINTLANNVLQMLDIQASQLRRMESSINHISQTVDIHKEKVARREIGILTTNKNTSRTHKIIAPANLERPVRYIRKPIDYTILDDIGHGVKWLLRFKVSTQNMKMGGLPRTTPPTQKPPSPPMSGKGTLGRHSPYRTLEPVRPPVVPNDYVPSPTRNMAPSQQSPVRTASVNQRNRTYSSSGSSGGSHPSSRSSSRENSGSGSVGVPIAVPTPSPPSVFPAPAGSAGTPPLPATSASAPAPLVPATVPSSTAPNAAAGGAPNLADGFTSPTPPVVSSTPPTGHPVQFYSMNRPASRHTPPTIGGSLPYRRPPSITSQTSLQNQMNGGPFYSQNPVSDTPPPPPPVEEPVFDESPPPPPPPEDYEEEEAAVVEYSDPYAEEDPPWAPRSYLEKVVAIYDYTKDKEDELSFQEGAIIYVIKKNDDGWYEGVMNGVTGLFPGNYVESIMHYSE
# partner: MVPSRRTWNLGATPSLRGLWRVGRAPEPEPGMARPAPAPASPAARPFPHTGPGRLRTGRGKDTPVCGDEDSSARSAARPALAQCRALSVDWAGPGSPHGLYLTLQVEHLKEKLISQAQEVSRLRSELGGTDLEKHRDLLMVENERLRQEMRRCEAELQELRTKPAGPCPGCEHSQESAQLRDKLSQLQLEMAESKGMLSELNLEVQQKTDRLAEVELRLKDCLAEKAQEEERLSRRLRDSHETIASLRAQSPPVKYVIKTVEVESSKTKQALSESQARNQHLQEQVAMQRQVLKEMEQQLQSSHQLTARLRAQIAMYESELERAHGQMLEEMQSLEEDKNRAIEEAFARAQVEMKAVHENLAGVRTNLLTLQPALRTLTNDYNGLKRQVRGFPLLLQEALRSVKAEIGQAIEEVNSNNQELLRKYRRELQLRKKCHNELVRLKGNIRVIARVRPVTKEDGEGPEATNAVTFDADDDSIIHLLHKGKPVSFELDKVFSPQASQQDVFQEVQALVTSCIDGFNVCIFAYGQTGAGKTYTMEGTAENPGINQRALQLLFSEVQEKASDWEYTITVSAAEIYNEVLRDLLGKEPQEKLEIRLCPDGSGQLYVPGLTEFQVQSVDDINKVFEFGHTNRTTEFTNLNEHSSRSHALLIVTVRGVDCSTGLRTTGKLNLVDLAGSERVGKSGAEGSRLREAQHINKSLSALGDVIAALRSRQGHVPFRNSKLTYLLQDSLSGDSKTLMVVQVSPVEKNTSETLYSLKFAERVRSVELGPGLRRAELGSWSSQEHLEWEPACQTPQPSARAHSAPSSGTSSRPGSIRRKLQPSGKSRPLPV
# B2: F-box only protein 11 (Homo sapiens), Q86XK2 (parent)
# chain: MNSVRAANRRPRRVSRPRPVQQQQQQPPQQPPPQPPQQQPPQQQPPPPPQQQQQQQPPPPPPPPPPLPQERNNVGERDDDVPADMVAEESGPGAQNSPYQLRRKTLLPKRTACPTKNSMEGASTSTTENFGHRAKRARVSGKSQDLSAAPAEQYLQEKLPDEVVLKIFSYLLEQDLCRAACVCKRFSELANDPILWKRLYMEVFEYTRPMMHPEPGKFYQINPEEYEHPNPWKESFQQLYKGAHVKPGFAEHFYSNPARYKGRENMLYYDTIEDALGGVQEAHFDGLIFVHSGIYTDEWIYIESPITMIGAAPGKVADKVIIENTRDSTFVFMEGSEDAYVGYMTIRFNPDDKSAQHHNAHHCLEITVNCSPIIDHCIIRSTCTVGSAVCVSGQGACPTIKHCNISDCENVGLYITDHAQGIYEDNEISNNALAGIWVKNHGNPIIRRNHIHHGRDVGVFTFDHGMGYFESCNIHRNRIAGFEVKAYANPTVVRCEIHHGQTGGIYVHEKGRGQFIENKIYANNFAGVWITSNSDPTIRGNSIFNGNQGGVYIFGDGRGLIEGNDIYGNALAGIQIRTNSCPIVRHNKIHDGQHGGIYVHEKGQGVIEENEVYSNTLAGVWVTTGSTPVLRRNRIHSGKQVGVYFYDNGHGVLEDNDIYNHMYSGVQIRTGSNPKIRRNKIWGGQNGGILVYNSGLGCIEDNEIFDNAMAGVWIKTDSNPTLRRNKIHDGRDGGICIFNGGRGLLEENDIFRNAQAGVLISTNSHPILRKNRIFDGFAAGIEITNHATATLEGNQIFNNRFGGLFLASGVNVTMKDNKIMNNQDAIEKAVSRGQCLYKISSYTSYPMHDFYRCHTCNTTDRNAICVNCIKKCHQGHDVEFIRHDRFFCDCGAGTLSNPCTLAGEPTHDTDTLYDSAPPIESNTLQHN
# B3: Acetylcholine receptor subunit gamma (Homo sapiens), P07510 (parent)
# chain: MHGGQGPLLLLLLLAVCLGAQGRNQEERLLADLMQNYDPNLRPAERDSDVVNVSLKLTLTNLISLNEREEALTTNVWIEMQWCDYRLRWDPRDYEGLWVLRVPSTMVWRPDIVLENNVDGVFEVALYCNVLVSPDGCIYWLPPAIFRSACSISVTYFPFDWQNCSLIFQSQTYSTNEIDLQLSQEDGQTIEWIFIDPEAFTENGEWAIQHRPAKMLLDPAAPAQEAGHQKVVFYLLIQRKPLFYVINIIAPCVLISSVAILIHFLPAKAGGQKCTVAINVLLAQTVFLFLVAKKVPETSQAVPLISKYLTFLLVVTILIVVNAVVVLNVSLRSPHTHSMARGVRKVFLRLLPQLLRMHVRPLAPAAVQDTQSRLQNGSSGWSITTGEEVALCLPRSELLFQQWQRQGLVAAALEKLEKGPELGLSQFCGSLKQAAPAIQACVEACNLIACARHQQSHFDNGNEEWFLVGRVLDRVCFLAMLSLFICGTAGIFLMAHYNRVPALPFPGDPRPYLPSPD
# Variants of: B1
# Details: with kifc3_human KIFC3, Q9BVG8
row,effect of a mutation on the interaction,Variant
1,with no effect,E202K

# Variants of: B2
# Details: with skp1_human SKP1, P63208
# Chain of skp1_human SKP1, P63208 (P63208 whole entry): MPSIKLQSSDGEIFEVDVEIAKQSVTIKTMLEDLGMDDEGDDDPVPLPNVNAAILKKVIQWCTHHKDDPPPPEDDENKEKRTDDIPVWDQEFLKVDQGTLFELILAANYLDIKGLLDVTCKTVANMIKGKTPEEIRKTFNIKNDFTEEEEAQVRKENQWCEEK
row,effect of a mutation on the interaction,Variant
1,with no effect,Y692F

# Variants of: B3
# Details: with kr108_human KRTAP10-8, P60410
# Chain of kr108_human KRTAP10-8, P60410 (P60410 whole entry): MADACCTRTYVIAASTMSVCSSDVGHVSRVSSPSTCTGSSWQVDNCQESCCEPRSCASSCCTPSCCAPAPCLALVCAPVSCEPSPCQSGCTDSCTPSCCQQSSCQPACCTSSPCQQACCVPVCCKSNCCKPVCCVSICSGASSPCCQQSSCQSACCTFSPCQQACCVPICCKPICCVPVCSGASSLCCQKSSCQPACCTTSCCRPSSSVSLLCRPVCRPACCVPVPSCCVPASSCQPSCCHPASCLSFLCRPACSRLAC
row,effect of a mutation on the interaction,Variant
1,with no effect,I448T

# Variants of: B3
# Details: with kr103_human KRTAP10-3, P60369
# Chain of kr103_human KRTAP10-3, P60369 (P60369 whole entry): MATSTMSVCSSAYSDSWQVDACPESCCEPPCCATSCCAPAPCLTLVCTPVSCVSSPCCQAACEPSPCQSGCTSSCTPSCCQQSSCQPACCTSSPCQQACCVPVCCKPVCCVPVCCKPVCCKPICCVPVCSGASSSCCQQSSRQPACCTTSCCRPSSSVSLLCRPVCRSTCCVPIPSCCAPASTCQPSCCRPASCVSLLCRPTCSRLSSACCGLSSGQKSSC
row,effect of a mutation on the interaction,Variant
1,with no effect,I448T

# Variants of: B3
# Details: with k1h1_human KRT31, Q15323
# Chain of k1h1_human KRT31, Q15323 (Q15323 whole entry): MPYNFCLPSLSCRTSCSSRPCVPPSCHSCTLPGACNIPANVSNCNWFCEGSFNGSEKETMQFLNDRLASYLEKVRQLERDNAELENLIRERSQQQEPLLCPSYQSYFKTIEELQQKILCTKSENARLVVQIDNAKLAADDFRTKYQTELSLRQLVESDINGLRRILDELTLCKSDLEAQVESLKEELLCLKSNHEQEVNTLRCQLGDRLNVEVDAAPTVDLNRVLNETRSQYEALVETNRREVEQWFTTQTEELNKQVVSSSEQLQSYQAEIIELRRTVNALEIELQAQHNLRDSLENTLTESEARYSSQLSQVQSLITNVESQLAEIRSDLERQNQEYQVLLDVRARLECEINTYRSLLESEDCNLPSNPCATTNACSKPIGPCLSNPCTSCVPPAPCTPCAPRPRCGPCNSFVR
row,effect of a mutation on the interaction,Variant
1,with no effect,I448T

# Variants of: B3
# Details: with nt2na_human NOTCH2NLA
row,effect of a mutation on the interaction,Variant
1,with no effect,I448T
